Results published in PMC7753581 (The FASEB Journal, 2020).

Experiments:
[1] = target: HLA I molecule A*02:01, purified; assay: radioligand binding
[2] = test system: CD8 T cells of peptide‐expanded PBMCs from A*02:01‐donors; assay: DimerX staining; format: cell-based, human; settings: Figure 5A; peptide‐stimulated PBMCs from A*02:01‐subject #14; representative experiment

Row | Substance | IC50 [1] [nM] | percentage of CD8 T cells recognizing DimerX‐peptides within the total of gated‐CD8 T cells [2] [%]
1 | HRVC_(1791-1806) peptide | 91 | 
2 | NTSAGFPYV [HRVC1798‐1806] |  | 1.12
